Results published in publication PMC6497562 (Molecular cancer research : MCR, 2019).

Target: neurofibromin (human (endogenous in 786-0 and RCC4), UniProt P21359-2 1-2818)
Experiment: co-IP

- fold increase of binding in hypoxia over normoxia: ~2 fold
B1: hypoxia-associated factor (HAF), endogenous (natural protein, human (endogenous in 786-0), UniProt O43290 1-800, looked up)
chain: MGSSKKHRGEKEAAGTTAAAGTGGATEQPPRHREHKKHKHRSGGSGGSGGERRKRSRERGGERGSGRRGAEAEARSSTHGRERSQAEPSERRVKREKRDDGYEAAASSKTSSGDASSLSIEETNKLRAKLGLKPLEVNAIKKEAGTKEEPVTADVINPMALRQREELREKLAAAKEKRLLNQKLGKIKTLGEDDPWLDDTAAWIERSRQLQKEKDLAEKRAKLLEEMDQEFGVSTLVEEEFGQRRQDLYSARDLQGLTVEHAIDSFREGETMILTLKDKGVLQEEEDVLVNVNLVDKERAEKNVELRKKKPDYLPYAEDESVDDLAQQKPRSILSKYDEELEGERPHSFRLEQGGTADGLRERELEEIRAKLRLQAQSLSTVGPRLASEYLTPEEMVTFKKTKRRVKKIRKKEKEVVVRADDLLPLGDQTQDGDFGSRLRGRGRRRVSEVEEEKEPVPQPLPSDDTRVENMDISDEEEGGAPPPGSPQVLEEDEAELELQKQLEKGRRLRQLQQLQQLRDSGEKVVEIVKKLESRQRGWEEDEDPERKGAIVFNATSEFCRTLGEIPTYGLAGNREEQEELMDFERDEERSANGGSESDGEENIGWSTVNLDEEKQQQDFSASSTTILDEEPIVNRGLAAALLLCQNKGLLETTVQKVARVKAPNKSLPSAVYCIEDKMAIDDKYSRREEYRGFTQDFKEKDGYKPDVKIEYVDETGRKLTPKEAFRQLSHRFHGKGSGKMKTERRMKKLDEEALLKKMSSSDTPLGTVALLQEKQKAQKTPYIVLSGSGKSMNANTITK
